Values joined by “and” are separate entries in the source; they are usually repeats but may differ in a detail not shown here. Equal values may be shown once.

Two substances from publication PMC3289634 can be followed below.

Test [1] concerns the target Max-E47 protein chimera (UniProt P61244). Briefly: AUC; sedimentation equilibrium, 16.0°C, 14,000-35,000 rpm, Rayleigh interference; 20 mM Tris pH 8.0, 0.15 M NaCl, 10 mM 2-mercaptoethanol; loading concentrations 5-25; the constant is of dimer to monomers.
For test [2] the target is unchanged. Briefly: AUC; sedimentation velocity, 20.0°C, 50,000 rpm, Rayleigh interference; loading concentrations 3-130 µM; 20 mM Tris pH 8.0, 0.1 M NaCl, 10 mM 2-mercaptoethanol, 5% (v/v) glycerol.
Test [3] has the same target. As to the kind of experiment: SEC; Superdex-75 column, against molecular weight markers. On the technique in general: In gel filtration, larger molecules generally elute earlier.
Test [4] deals with Max-E47YF cloning variant (Max-E47-V51Y/V59F) (UniProt P61244). Briefly: AUC; sedimentation equilibrium, 16.0°C, 14,000-35,000 rpm, Rayleigh interference; 20 mM Tris pH 8.0, 0.15 M NaCl, 10 mM 2-mercaptoethanol; loading concentrations 5-25; the constant is of dimer to monomers.

“Max-E47 protein chimera (from UniProt P61244 22-36; P15923-2 349-400) (designed binder)”: the stoichiometry N with Max-E47 protein chimera [1] was 2 and 4; in the test with Max-E47 protein chimera [2] it was 2 and 4; with Max-E47 protein chimera [3], 2.
In test [4], “Max-E47YF cloning variant (Max-E47-V51Y/V59F) (from UniProt P61244 22-36) (designed binder)” had a Kd below 1 nM and a stoichiometry N of 2.

As a reminder, the stoichiometry N is a count of units in the complex or per binding partner. By Kd is commonly meant the constant that tells how readily two partners part at equilibrium. Read a high Kd as lower affinity.
